Measurements published in the DeepSol protein solubility set.

Experiment: soluble on expression in E. coli; label from the status in PepcDB or PDB records

Row | Sequence | soluble on expression in E. coli
1 | MSTAEQRMDTSEVELPNDNVNEQGNKTPRADQPESSASGARNHGEDEEVTEQVELAAMETEASDSIVDNVPKTPRRAGRPKKLPSTSTAAAESAVTPGKRGRKRKGSESVNTTINSTMNSTLNEPKTPGRKQAKLVAPLLTYDLFAPSIIGDRVLSCGEGEALGHPGRTTTKKPRKVDIFEEEGLKPLQAVAGGVHSAVLTSEGEVYMCGINEKGTVPAEGVEKEGSTDEFAKVKFEEDIEKEGKIVMLAAGASFTAALTDQGSVIAWGNLRNSNGNVDVHPLLHKMQEAPVVIVHQAKRKIVKIAAGENHLVMLDEKGCLLTFGDGEMGQLGRSSRTKTIRSKYMCDESGDHLLVPLRFKHKGKFFDVVAKNVFASGFWTIVHGEDGKYYAFGLNNYAQLGIKVDEADVGQDGQDNRELRVFLPAEAPAFGAERTFVNIEGVQHVVILGSDGKVFAMGKNTDNALGLGNWTGKDDQQHWLYDTIQEIEFDSKIVGVSAKLATSIAWSEDGTAYAWGFDTTGQLGLGLKDEDEKMVSKPEEISSAHLDGYSIIGASISDQHTLIIAKKN | soluble
2 | HTHWGYTGHDSPESWGNLSEEFRLCSTGKNQSPVNITETVSGKLPAIKVNYKPSMVDVENNGHTIQVNYPEGGNTLTVNGRTYTLKQFHFHVPSENQIKGRTFPMEAHFVHLDENKQPLVLAVLYEAGKTNGRLSSIWNVMPMTAGKVKLNQPFDASTLLPKRLKYYRFAGSLTTPPCTEGVSWLVLKTYDHIDQAQAEKFTRAVGSENNRPVQPLNARVVIE | soluble
3 | MATWTVHLEGGPRRVNHASIAVGSRIYSFGGYCSGEVTDAKDPLDVHVLNTENYRWIKMNPGYVYNNRIITKATIESPYSDSDKMFGAVPYQRYGHTVVEYQGKAYVWGGRNDDYGACNLLHEYDPEYNVWKKVEIEGFVPPSRDGHTAVVWNNQMFVFGGYEEDAQRFSQETYVFDFATSTWREMHTKNDPPRWRDFHTASVIDGMMYIFGGRSDESGQVGDEHLFHTIHDQYDDTLMALNLATGAWTRTKVPENTMKPGGRRSHSTWVYDGKMYMFGGYLGTINVHYNELYCFDPKTSMWSVISVRGTYPSARRRHCSVVSNGKVYLFGGTMPLPCHPLSTTNYNGMISPSGLADLSDLHVLDFAPSLKTLAMQSVLNELKVPSKGMFETLQNELAADIRFEMYCQVMPNVVSNGGSPRNDQAG | not soluble
4 | MPLVNSHIVEECLPFTSLRLDPEDINLSMGAGYVPDAEIQAISDALETEIAGICTPRFLYALFDAEPAGTCEVGVNGISLKTGSVITPYLKDAAGYVLFVATAGYEFEAFQHRIGSQGDILREFLLDAYGSAIAEAVVREVCRKVESRMFPLGYGVSHPYSPGYCGWHVTQQQLLFSCLPEFPCGVRLSDSSLMSPIKSVSGIIAYGPCIVKRKYGCELCGKADCYKNRNKLNRLEHHHHHH | soluble
5 | MGSDKIHHHHHHMTRADYLNQLEQALFQLHPSARQEALDYFNEYFDEKDNDEEAIIELGTPDEAAKEIIANLPEDALIPEKDQASPHSSKPFDFNFDFDFQFDWENFFNNFKHSAYQARERIKLTSKIEELPEFSNLQISLEDQALSVQSYEGEAVLLHNPVSEDGSYQAFDYQLVQDSLYISSKPTPNHLYFSNNQISSAILKIPKKLLPLTNLNLKTADSSLTIVDVQVCEQMVVNAKDSSISMTKVSCPSSALQLEDSTLTISDGQMSELKLEASDAVITLSSMSLSDARITLEDCVWKLKDFVLEKSLNCQAEDSVLTYKPSTDISLDIWEEDSSLKLPKDKAFTMMKEGDITHLSYKQENSPAQLVIHCQDCQLSVG | not soluble
6 | SMDSRLQRIHAEIKNSLKIDNLDVNRCIEALDELASLQVTMQQAQKHTEMITTLKKIRRFKVSQVIMEKSTMLYNKFKNMFLVGEGDSVLEVLFQ | soluble
7 | GPGSMLGGRHFQRKYEKKQKKKEAKKASQGPLRGAGGSSGVRAAVAAAAGAAVKRKDGSTLKGPVVSHGDFMASRDSANNRKNVPFSSKMEEKVYRKEHRVPKYNSIVDPERQNLAKAAGASSAAQRRRVLRQKGGDDLLDHFRERLNASTFRLLNEQVYNAPTTLASRLLREEATFRDYHTGYHQQLMQWPINPNKLIVESLLGDRRGRFLANKGKSMPGHIPPSWVVADMGCGEAQIAAALKPKGYTVHSFDFFALNSLVTVADTTKVPLADNHVDVCVFSLSLMATDYVKSLFEAFRVLKPKRLLKIIEVRSRVPFPRKFAELVEDIGFDVDYSDVAGDYFVAFDFIKKDGQAAANTQLRHEPGDVLVPSLYKKR | soluble
8 | AEEYGYIVTDQKPLSLAAGVKLLEILAEHVHMSSGSFINISVVGPALTFRIRHNEQNLSLADVTQQAGLVKSELEAQTGLQILQTGVGQRE | soluble
9 | MTPDHLLMLVALATFQKGIVPPTPAMELVMQVGACYHALTDAPRMGKLRLFLGKKPMAKLEQFLTEIENETDADF | not soluble
10 | MTIKEDLGRRIKAERNRKQLTQSLLCGDETKLTIRQLQRIEGGQSLPTLEKLEFIADRLGTKIADLLEGSDIQLPDDYWELKGQIVKFPTYADKERLQQKQELIEEIYDKYFDILPEDELLFLDLSENILDSFHEKDIPNIEEIYDDAFEQVLKKETFAFNDYLYMSYFLQKCGKTADYDQTTFKLLEQKLLKQELTVDELYNIELLIAVMEASGVYALHNDYQNLLPLMKKAQRIIDKAQLHTYKPPLLELEAKYYVKVVKDKKKAKELYQQALVMGEVLGDPVIIADVKMEMANDGID | not soluble
11 | MDPLSRDENYIQRLTPEMWREIKAASPEVTAEMLDDLKHGNTYYTGVETDKGVLIFSRDIIGEGQFSDYMYKYIENDFFASEFVLKSLAVHELRGWPSLMEGKLNRCHNRFGWWGDGETIRRAFQDRSVLKNVTDSETYDFTPPPHGRTITG | not soluble
12 | MTLHEVPTILHRCGDCPIRHRAVCARCDSEELATLEQIKYYRSYQAGQTVIWSGDKMDFVASVVTGIATLTQTMEDGRRQMVGLLLPSDFVGRPGRQTVAYDVTATTDLLMCCFRRKPFEEMMQKTPHVGQRLLEMTLDELDAAREWMLLLGRKTAREKIASLLAIIARRDAALKLRESNGPMTFDLPLTREEMADYLGLTLETVSRQVSALKRDGVIALEGKRHVIVTDFARLLEEAGDDSDGGLPV | not soluble
13 | MSLLSGGLSLNDKSWQALVFDYTNDGMGWPIGALASAEQILLAMSAQLVDTDFELSLLLPEGEGEEALFELADAVAEWINHFISGLGLSGANLKHASVEAKEALEDLEEMSKLGIDEEDDLAEQAELLEQVIEHIKVCVLVLHAEFGVKPEQDTKPTVHEGGSHHHHHH | soluble
14 | MSHRKALLIHNGNAANKNIEKALGAVVPVLSHHLDEVIIKQTKKKDHAYHFCRSIDDSVDTVFILGGDGTIHQCINAISALERKPAVGILPGGTSNDFSRVLGIPQNLAKAAEALMAGKKTSVDVCQMNDRYFLNFWGIGLIAETSNQINETEKALLGKISYFTSALRTVSSAASFPMTLKIDGEEIKEEAVMLLVMNGQYIGTNRIPLPDASIEDGLLDVLICRNTNLTALRELMSMEQGSIDRFTGELSYVQASRIEIETDTAKKADMDGEVYTHTPAVIQVLPQHIDMLVPANE | soluble
15 | MNSLPVAIIGGGPVGLAAAAHLAVRDVPFVLFEGKSEVGASILEWKHVSLFSPWKYNIDRAAKSLLEKESWKEPAGDRLPTGEQLVRDYLQPLAETKALKPYIYTNAPVQSIYRKGIDKIKDHNRENTPFIIRYKQDNDQKTLRARAVIDATGTWFSPNPIGAGGVPAIGEEEAKDSIYYGIPDVKGKDRSRYEGKTILVVGSGHSAIHTLLDLAQLKEAAPSTRILWAIRRNSPNGLFGGGQEDALPARGQLGLALEALLSKQKVELISSFEMEQIDRVEGRLSVVGVQNESPISLPLVDEIVANTGARPTVDYHRDIRYQLDSKLESVPALAPLIDPNIHSCGTVRPHGEKELRQPEKNFYIAGVKSYGRAPTFLLATGYEQVRSIVASLAGSKKEAERVELQLPKTGVCKSDFLAKRSCCLEHHHHHH | soluble
16 | MRVDIVPVGDVPAHVKRQASSSLRSVYDCEVVVASEQDVPTAAYDEARSQYRAAEFIDTATRATSGDKTIAITPHDLFYRRRNYVFGLAYLDGRGCVVSTYRLQTSSDGGFSNRSSSDVFDDRVRKEVVHELGHTLGLEHCDNNRCAMNFSPTVREVDRKEENLCGSCQRTVFLEHHHHHH | not soluble
17 | GMPTFNPELHAQTLNSERAYFVQPDADPAFTPHIGALVEMLTYARLTTLQAVEGLPEDQLWATAPGFANSIGTLLAHIAAVERVYHVLSFQGRDVTPEDDGAAYWGLTMGKEGTAPARLPTLDELRAELADARAETLRVFAAKDDAWLAEPLGPGWANQHWAWFHVMEDEVNHRGQLRLLRQVLAPEEGG | soluble
18 | MTTMNPFLVQSTLPYLAPHFDQIANHHYRPAFDEGMQQKRAEIAAIALNPQTPDFNNTILALEQSGELITRVTSVFFAMTAAHTNDELQRLDEQFSAELAELANDIYLNGELFARVDAVWQRRESLGLDSESIRLVEVIHQRFVLAGAKLAQADKAKLKVLNTEAATLTSQFNQRLLAANKSGGLVVNDIAQLAGMSEQEIALAAEAAREKGLDNKWLIPLLNTTQQPALAEMRDRATREKLFIAGWTRAEKNDANDTRAIIQRLVEIRAQQAKLLGFPHYAAWKIADQMAKTPEAALNFMREIVPAARQRASDELASIQAVIDKQQGGFSAQPWDWAFYAEQVRREKFDLDEAQLRPYFELNTVLNEGVFWTANQLFGIKFVERFDIPVYHPDVRVWEIFDHNGVGLALFYGDFFARDSKSGGAWMGNFVEQSTLNETHPVIYNVCNYQKPAAGEPALLLWDDVITLFHEFGHTLHGLFARQRYATLSGTNTPRDFVEFPSQINEHWATHPQVFARYARHYQSGAAMPDELQQKMRNASLFNKGYEMSELLSAALLDMRWHCLEENEAMQDVDDFELRALVAENMDLPAIPPRYRSSYFAHIFGGGYAAGYYAYLWTQMLADDGYQWFVEQGGLTRENGQRFREAILSRGNSEDLERLHRQWRGKAPQIMPMLQHRGLNI | not soluble
19 | MQQNIRIQKNQYDTATHPTASSTTWKYVTYDETSETFGMSEQVADPCNHCPKPRNYNSECKDEDVEKHFEKVMPCVHTYTIIYGNVHHLPNHPIIRNLRHNHY | soluble
20 | SNAMFHYTVDVSTGMNETIERLEESLKQEGFGVLWQFSVTEKLQEKGLDFSTPMVILEVCNPQEAARVLNENLLVGYFLPCKLVVYQENGTTKIGMPKPTMLVGMMNDPALKEIAADIEKRLAACLDRCR | soluble
21 | MAEIQFSKGVAETVVPEVRLSKSKNGQSGMAKFYFLEPTILAKESTDDITGMYLIDDEGEIITREVKGKFINGRPTAIEATVILNSQPEWDRFMRFMERYGAENGLGFSKSELEHHHHHH | soluble
22 | MGSDKIHHHHHHMNTNKRVLILTANYGNGHVQVAKTLYEQCVRLGFQHVTVSNLYQESNPIVSEVTQYLYLKSFSIGKQFYRLFYYGVDKIYNKRKFNIYFKMGNKRLGELVDEHQPDIIINTFPMIVVPEYRRRTGRVIPTFNVMTDFCLHKIWVHENVDKYYVATDYVKEKLLEIGTHPSNVKITGIPIRPQFEESMPVGPIYKKYNLSPNKKVLLIMAGAHGVLKNVKELCENLVKDDQVQVVVVCGKNTALKESLSALEAENGDKLKVLGYVERIDELFRITDCMITKPGGITLTEATAIGVPVILYKPVPGQEKENANFFEDRGAAIVVNRHEEILESVTSLLADEDTLHRMKKNIKDLHLANSSEVILEDILKESEMMTAKQKAKVLS | not soluble
